Measurements as given in patent US20240294650A1 (Alector, published 2024).

T1: MerTK C-terminal ECD Half-and-half chimera (human)
T1 construct: tested as culture supernatant; also called MerTK C-term half-and-half chimera; MerTK C-terminal ECD (FN1-FN2-JM) + Axl N-terminal ECD (NT-Ig1-Ig2)
T1 chain: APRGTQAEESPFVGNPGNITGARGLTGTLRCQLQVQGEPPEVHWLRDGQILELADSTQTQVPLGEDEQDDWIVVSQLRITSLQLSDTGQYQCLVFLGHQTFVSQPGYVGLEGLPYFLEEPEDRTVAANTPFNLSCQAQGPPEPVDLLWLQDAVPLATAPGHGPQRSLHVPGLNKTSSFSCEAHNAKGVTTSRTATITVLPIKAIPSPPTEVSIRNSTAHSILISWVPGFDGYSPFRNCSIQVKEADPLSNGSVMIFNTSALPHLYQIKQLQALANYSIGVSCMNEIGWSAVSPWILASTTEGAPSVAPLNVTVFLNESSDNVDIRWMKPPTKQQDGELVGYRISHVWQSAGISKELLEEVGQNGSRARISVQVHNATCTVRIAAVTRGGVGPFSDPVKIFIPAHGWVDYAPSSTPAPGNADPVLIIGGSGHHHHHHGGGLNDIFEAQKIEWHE

T2: His tag-conjugated recombinant ProS (human, UniProt P07225 42-676, limits assumed)
T2 construct: bought; also called Protein S; ProS1 (R&D systems, Cat #9489-PS-100)
T2 sequence (looked up): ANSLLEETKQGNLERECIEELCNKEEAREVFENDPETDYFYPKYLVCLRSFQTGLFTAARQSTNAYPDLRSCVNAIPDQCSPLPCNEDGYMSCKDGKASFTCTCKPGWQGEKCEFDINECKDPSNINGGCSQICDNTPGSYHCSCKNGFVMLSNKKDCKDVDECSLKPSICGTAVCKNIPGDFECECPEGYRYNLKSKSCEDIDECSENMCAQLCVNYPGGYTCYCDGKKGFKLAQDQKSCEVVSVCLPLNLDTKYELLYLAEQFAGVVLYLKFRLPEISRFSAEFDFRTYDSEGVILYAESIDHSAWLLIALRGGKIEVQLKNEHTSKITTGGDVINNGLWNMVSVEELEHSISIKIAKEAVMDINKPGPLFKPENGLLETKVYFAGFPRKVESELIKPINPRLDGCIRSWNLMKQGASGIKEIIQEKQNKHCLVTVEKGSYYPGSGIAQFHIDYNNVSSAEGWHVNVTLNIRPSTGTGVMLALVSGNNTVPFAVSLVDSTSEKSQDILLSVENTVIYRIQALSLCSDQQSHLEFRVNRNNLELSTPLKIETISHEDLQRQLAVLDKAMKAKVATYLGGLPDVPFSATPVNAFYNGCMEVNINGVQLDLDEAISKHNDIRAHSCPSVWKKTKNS

T3: recombinant cynomolgus MerTK extracellular domain (cynomolgus, UniProt Q12866 21-505 (human entry))
T3 construct: also called cyno MerTK ECD; not shown: polyHis or TEVS/Thrombin/murine IgG2a-Fc tag
T3 chain: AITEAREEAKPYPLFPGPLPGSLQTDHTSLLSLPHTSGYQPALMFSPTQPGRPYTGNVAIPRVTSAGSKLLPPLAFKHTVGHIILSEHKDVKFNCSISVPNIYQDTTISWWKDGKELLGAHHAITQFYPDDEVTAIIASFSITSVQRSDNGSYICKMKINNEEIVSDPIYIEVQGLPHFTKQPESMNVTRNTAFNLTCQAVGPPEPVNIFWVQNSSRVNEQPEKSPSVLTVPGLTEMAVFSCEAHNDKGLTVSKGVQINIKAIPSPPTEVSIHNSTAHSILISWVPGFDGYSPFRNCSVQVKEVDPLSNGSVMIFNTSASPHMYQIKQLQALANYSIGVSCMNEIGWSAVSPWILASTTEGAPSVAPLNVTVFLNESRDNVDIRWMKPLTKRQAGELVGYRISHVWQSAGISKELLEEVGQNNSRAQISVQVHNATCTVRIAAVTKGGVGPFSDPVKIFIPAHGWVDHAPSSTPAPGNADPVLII

B1: MTK-218 (antibody, human IgG1, V domains shown)
VH: QVQLQQSGPELVKPGTSVKISCKASGYSFTSYYIHWVKQRPGQGLDWIGWIFPGNRNTQYNEKFKGKATLTADTSSSTAYMQLSSLTSEDSAVYYCARLGLIYALDYWGQGTSVTVSS
VL: DAVMTQTPLSLPVSLGDQASISCRSSQSLENSNGHTYLHWYLQKPGQSPQLLIYRVSNRFSGVQDRFSGSGSGTDFTLKISRVEAEDLGVYFCLQVTHVPFTFGSGTKLEIK
B2: MTK-226 (antibody, human IgG1, V domains shown)
VH: QVQLQQSGPELVKPGASVKISCKASGYSFTSYYIHWVKQRPGQGLEWIGWIFPGNGNTKYNENFRGKATLTADTSSSTAYMQLSSLTSEDSAVYYCARLGLIYALDYWGQGTSVTVSS
VL: DAVMTQTPLSLPVSLGDQASISCRSSQSLESSNGNTYLHWYLQKPGQSPQLLIYRVSNRFSGVLDRFSGSGSGTDFTLQISRVEAEDLGVYFCLQVTHVPFTFGSGTKLEIK
B3: MTK-223 (antibody, human IgG1, V domains shown)
VH: DVQLQESGPGLVKPSQSLSLTCSVTGYSITSGYYWNWIRQFPGNKLEWMGYISYDGTNNYNPSLKNRISITRDTSENQFFLKLNSVTTEDTATYFCVRGAGYWGQGTTLTVSS
VL: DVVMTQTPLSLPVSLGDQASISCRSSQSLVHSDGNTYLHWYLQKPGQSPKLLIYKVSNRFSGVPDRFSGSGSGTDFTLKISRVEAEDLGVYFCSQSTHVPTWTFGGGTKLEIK
B4: MTK-213 (antibody, human IgG1, V domains shown)
VH: QVQLQQPGAELVKPGASVKMSCKASGYTFTSYWITWVKQRPGQGHEWIGEIYPGIGSTNYNEKFKSKATLTVDTSSRTAYMQLSSLTSEDSAVYFCARGAYTKYYFDYWGQGTTLTVSS
VL: DIVMTQSHKFMSTSVGDRVSITCKASQDVGDAVAWYQQKPGQTPKLLIYWASTRHTGVPDRFTGSGSGTDFTLTISNVQSEDLADYFCQQYSSYLMYTFGGGTKLEIK
B5: MTK-220 (antibody, V domains shown)
VH: EVQLVESGGGLVKPGGSLKLSCAASGFTFSDYGMHWVRQAPEKGLEWVAFISGGSGTIYYEDTVKGRFTISRDNAKNTLFLQMTSLRSEDTAMYYCTRGGNYFDYWGQGTTLTVSS
VL: NIMLTQSPSSLAVSAGEKVTMTCKSSQSVLYSSNQKNYLAWYQQKPGQSPKLLIYWASTRESGVPDRFTGSGSGTDFTLTISNVQAEDLAVYYCHQYFSSWTFGGGTKLEIK
B6: MTK-212 (antibody, human IgG1, V domains shown)
VH: QVQLQQSGPELVKPGASVKISCKASGYAFSSSWVNWVKQRPGKGLEWIGRIYPGDGDSNYNGNFKGKATLTADKSSNTAYLQLSSLTSEDSAVYFCARKSHFIYYTLDYWGQGTPVTVSS
VL: DIVMTQSHKFKSTSVGDRVSIACKASQDVGTSVAWYQQKPGKSPKLLIYWASSRHTGVPDRFTGSGSGTDFTLTISNVQSEDLTDYFCQQYSTYPYTFGGGTKLEIK
B7: MTK-202 (antibody, human IgG1, V domains shown)
VH: EVQLVESGGGLVKPGGSLKLSCAASGFTFSDFGMHWVRQVPEKGLEWVAFISGGSNTIYYTDTVKGRFTISRDNAKNTLFLQMTSLRSEDTAMYYCVRNGNSFAYWGQGTLVTVSA
VL: NIMMTQSPSSLAVSAGEKVTMNCKSSQSVLYSSNQKNYLAWYQQKPGQSPKLLIYWASTRESGVPDRFTGSGSGTDFTLTISNIQAEDLAIYYCHQYFFSWTFGGGTKLEIK
B8: MTK-204 (antibody, human IgG1, V domains shown)
VH: EVQLVESGGGLVKPGGSLKLSCAASGFTFSDYGMHWVRQAPEKGLEWVAYISSGTSTIYYEDTVKGRFTISRDNAKNTLFLQMTSLRSEDTAMYYCARGGLLFDYWGQGTTLTVSS
VL: NIMMTQSPSSLAVSAGEKVTMSCKSSQSVLYSSNQKNYLAWYQQKPGQSPKLLIQWASTRESGVPDRFTGSGSETDFTLTIRSVQAEDLAVYYCHQYFSSWTFGGGTKLEIK
B9: MTK-231 (antibody, human IgG1, V domains shown)
VH: DVQLQESGPGLVKPSQSLSLTCSVTGYSITSGYYWNWIRQFPGNKLEWMGYISYDGTYNYHPSLKNRISITRDTSKNQFFLTLNSVTTEDTATFYCTRGGGYWGQGTSVTVSS
VL: DVVMTQTPLSLPVSLGDQASISCRSSQSLVHSDGNTYLHWYLQKPGQSPKLLIYKVSNRFSGVPDRFSGSGSGTDFTLKISRLEAEDLGIYFCSQTTHIPLTFGSGTKLEIK
B10: MTK-225 (antibody, human IgG1, V domains shown)
VH: EVQLQQSGPELVKPGASVKIFCKASGYTFTAYNMDWVKQSHGKSLEWIGDINPNNGGTIYNQKFKGKATLTVDKSSSTAYMELRSLTSEDTAVYYCARRRRYGNTYYWYFDVWGTGTTVTVSS
VL: DIQMTQSPASLSVSVGETVTITCRASENIYSSLAWYQQKQGKSPQLLVYAATNLADGVPSRFSGSGSGTQFYLKINGLQSEDFGSYYCQHFWGTSYTFGGGTKLEIK
B11: MTK-211 (antibody, human IgG1, V domains shown)
VH: QVQLQQSGAELMKPGASVKLSCKATGYTFTGYWIEWVKQRPGHGLEWIGEILPGSGGSNYNEKFKGKATFTADTSSNTAYIQLSSLTTEDSAIYCCARGEPSYFSDAGFAYWGQGTLVTVSA
VL: QIVLTQSPAVMSASPGEKVTMTCSASSSITYMHWYQQKPGTSPKRWIYDTSKLASGVPARFSGSGSGTSYFLTISSMEAEDVATYYCHQRSTYPYTFGGGTKLEIM
B12: MTK-207 (antibody, human IgG1, V domains shown)
VH: QVQLKESGPGLVAPSQSLSITCTVSGISLTSYGVSWVRQPPGKGLEWLGIIWGDGSTNYHSALISRLSISKDNSKSQVFLKLNSLQTDDTATYYCAKGRYGNYEDWYFDVWGTGTTVTVSS
VL: DIQMTQSPASLSASVGETVTITCRASGNIHNYLAWYQQKQGKSPQLLVYNAKTLAAGVPSRFSGSGSGTQYSLKINSLQPEDFGSYYCQHFWSIPLTFGAGTKLELK
B13: MTK-214 (antibody, human IgG1, V domains shown)
VH: QVQLQQPGAELVKPGASVKVSCKASGYTFTNYWMHWMKQRPGQGLEWIGRIHPFDSDTNYNEKFTDKATLTVDKSSSTAYMQLSSLTSEDSAVYYCAIGTLIYWGQGTTLTASS
VL: DILLTQSPATLSVTPGETVSLSCRASQSIYKKLHWFQQRSHRSPRLLIKFASDSISGIPSRFTGSGSGTDYTLSINSVKPEDEAIYYCLQGYSTPLTFGAGTKLELK
B14: MTK-224 (antibody, human IgG1, V domains shown)
VH: QVQLQQPGAELVKPGASVKVSCKASGYTFTSYWMHWVKQRPGQGLEWIGRIHPFDSDTNYNQKFKGKATLTVDKSSSTAYMQLSSLTSEDSAVYYCSIAGFAYWGQGTLVTVSA
VL: DIVMTQSPATLSVTPGDRVSLSCRASQIISDYLNWYQQKSHESPRLLIKYASQSISGIPSRFSGSGSGSDFTLSINSVEPEDVGVYYCQNGHSFPLTFGAGTKLELK
B15: MTK-216 (antibody, human IgG1, V domains shown)
VH: EVQLVESGGGLVKPGGSLKLSCAASGFTFSDYGMHWVRQAPEKGLEWVAFISSGSTTIYYADTVKGRFTISRDNAKNTLILQMTSLRSEDTAIYYCTRGGFHLDYWGQGTTLTVSS
VL: SIMMTQSPSSLAVSAGEKVTMGCKSSQSVLYSANQQNYLAWYQQKPGQSLKLLIYWASTRESGVPDRFTGSGSGTDFTLTISSVQAEDLAVYYCHQYFSSWTFGGGTKLEIK

Molecular target: T1, MerTK C-terminal ECD Half-and-half …
Experiment: SPR, construct supernatant over immobilised Ab
Summary of the method: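 Anti-MerTK antibodies amine-coupled in duplicate on an HC30M chip; supernatants carrying MerTK/Axl domain-swap or deletion constructs diluted 1:1 in HBS-TE with 0.5 mg/mL BSA and injected over them. Regeneration with 10 mM glycine pH2.0; loss or gain of binding used to map antibody domain epitopes.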

**Q.** Does B1 bind?
**A.** Result: no binding

**Q.** Does B2 bind?
**A.** Result: no binding

**Q.** Does B3 bind?
**A.** Result: no binding

**Q.** Does B4 bind?
**A.** Result: no binding

**Q.** Does B5 bind?
**A.** Result: no binding

**Q.** Does B6 bind?
**A.** Result: no binding

**Q.** Does B7 bind?
**A.** Result: no binding

**Q.** Does B8 bind?
**A.** Result: no binding

**Q.** Does B9 bind?
**A.** Result: no binding

**Q.** Does B10 bind?
**A.** Result: no binding

molecular target: T2, His tag-conjugated recombinant ProS; experiment: ELISA, captured Ab, ProS-His 10 ug/ml, no MerTK

**Q.** Does B11 bind?
**A.** Result: binds

**Q.** Does B4 bind?
**A.** Result: binds

**Q.** Does B9 bind?
**A.** Result: binds

**Q.** Does B12 bind?
**A.** Result: binds

**Q.** Does B13 bind?
**A.** Result: binds

**Q.** Does B14 bind?
**A.** Result: binds

Molecular target: T3, recombinant cynomolgus MerTK …
Experiment: SPR Carterra LSA, Ab immobilised; LB = low binding (below limit of measurement), KD not determined

**Q.** Does B15 bind?
**A.** Result: binds

**Q.** Does B12 bind?
**A.** Result: binds
